Measurements published in the supplement of paper PMC7125110.
± gives the standard error. For some assays here: This sample holds only a part of the variants without activity.

B1: glmS ribozyme (parent)
chain: AUAAAAGCGCCAGAACUACAGAAAUGUAGUUGACGAGGAGGAGGUUUAUCGAAUUUUCGGCGGAUGCCUCCAAA

How the values were obtained:
Conditions in all cases: with glucosamine-6-phosphate
[1] = variants of: B1; test: kcat; higher = faster cleavage; RNA array
In short: (§1)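 Sequenced MiSeq chips were the platform: E. coli RNA polymerase transcribed barcoded ribozyme variants on them in situ, and a hybridised Cy3 probe tracked these at 37 °C. After glucosamine-6-phosphate (40 μM to 10 mM) in HEPES/KCl/Mg(OAc)2 buffer was flowed in, tiles were imaged over ~14 h. Signals normalised to baseline and to non-cleaving reference variants were reduced to per-tile medians and fit to one- or two-exponential decays to obtain kobs. kcat and KM were derived through weighted Michaelis–Menten fits across concentrations.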

[2] = variants of: B1; test: self-cleavage kobs at 40 uM GlcN6P; higher = faster cleavage; RNA array
In short: as §1

[3] = variants of: B1; test: self-cleavage kobs at 160 uM GlcN6P; higher = faster cleavage; RNA array
In short: as §1

[4] = variants of: B1; test: self-cleavage kobs at 10000 uM GlcN6P; higher = faster cleavage; RNA array
In short: as §1

[5] = variants of: B1; test: self-cleavage kobs at 640 uM GlcN6P; higher = faster cleavage; RNA array
In short: as §1

[6] = variants of: B1; test: KM; higher = weaker cofactor use; RNA array
In short: as §1

[7] = variants of: B1; test: self-cleavage kobs at 2500 uM GlcN6P; higher = faster cleavage; RNA array
In short: as §1

| Variant | kcat [1] | self-cleavage kobs at 40 uM GlcN6P [2] | self-cleavage kobs at 160 uM GlcN6P [3] | self-cleavage kobs at 10000 uM GlcN6P [4] | self-cleavage kobs at 640 uM GlcN6P [5] | KM [6] | self-cleavage kobs at 2500 uM GlcN6P [7] |
| --- | --- | --- | --- | --- | --- | --- | --- |
| A6U U30A | 3.27e-05 ± 4.2e-06 s⁻¹ | < 1e-05 s⁻¹ | < 1e-05 s⁻¹ | 2.86e-05 ± 1e-05 s⁻¹ | – | – | – |
| A1G G37U | 1.48e-05 ± 2.9e-06 s⁻¹ | – | – | – | < 1e-05 s⁻¹ | – | – |
| G43U U65G | 4.38e-05 ± 9.2e-07 s⁻¹ | < 1e-05 s⁻¹ | – | 3.53e-05 ± 1.1e-05 s⁻¹ | – | 2380 ± 190 µM | – |
| C61A U65A | < 1e-05 s⁻¹ | – | – | – | – | – | < 1e-05 s⁻¹ |
| G59A U69C | 5.07e-05 ± 2.8e-06 s⁻¹ | – | – | 4.7e-05 ± 1e-05 s⁻¹ | – | 943 ± 240 µM | – |
| U47A C50A | 4.12e-05 ± 2e-06 s⁻¹ | – | – | 2.6e-05 ± 9.8e-06 s⁻¹ | – | 5840 ± 720 µM | – |
| U46A U47A | 0.00774 ± 0.0022 s⁻¹ | 0.000207 ± 4.9e-05 s⁻¹ | 0.000426 ± 6.1e-05 s⁻¹ | 0.00631 ± 0.0017 s⁻¹ | 0.00159 ± 0.00033 s⁻¹ | 2510 ± 920 µM | 0.00385 ± 0.00067 s⁻¹ |
| U46A C68G | 2.56e-05 ± 5.1e-06 s⁻¹ | < 1e-05 s⁻¹ | – | – | – | – | 3.32e-05 ± 1.5e-05 s⁻¹ |
| C10A C61A | 2.22e-05 ± 9.1e-06 s⁻¹ | < 1e-05 s⁻¹ | – | – | – | – | – |
| A33U G41A U54G | 3.66e-05 ± 1.4e-06 s⁻¹ | – | – | 2.88e-05 ± 1.2e-05 s⁻¹ | – | 2720 ± 360 µM | – |
| U56A C70A | 8.96e-05 ± 1.4e-05 s⁻¹ | 3.68e-05 ± 1.1e-05 s⁻¹ | 5.73e-05 ± 1.1e-05 s⁻¹ | 8.51e-05 ± 9.4e-06 s⁻¹ | 7.05e-05 ± 1.1e-05 s⁻¹ | – | 0.000153 ± 2.3e-05 s⁻¹ |
| U54C A64G | 0.016 ± 0.0067 s⁻¹ | 0.000616 ± 8.4e-05 s⁻¹ | 0.00156 ± 0.00033 s⁻¹ | 0.0123 ± 0.0031 s⁻¹ | 0.00883 ± 0.0018 s⁻¹ | – | 0.0287 ± 0.0082 s⁻¹ |
| A6U G32U C50G | 6.32e-05 ± 1.6e-05 s⁻¹ | – | 7.94e-05 ± 1.8e-05 s⁻¹ | – | – | – | 6.04e-05 ± 1.5e-05 s⁻¹ |
| C11A G32A | 1.09e-05 ± 7.8e-07 s⁻¹ | – | – | – | – | – | – |
| G41A U45A | 0.000317 ± 4.9e-05 s⁻¹ | 9.19e-05 ± 1.9e-05 s⁻¹ | 0.000128 ± 3e-05 s⁻¹ | 0.000299 ± 5.4e-05 s⁻¹ | 0.000296 ± 5.5e-05 s⁻¹ | 140 ± 59 µM | 0.000354 ± 8.1e-05 s⁻¹ |
| A48G U65G | 8.76e-05 ± 3.5e-05 s⁻¹ | < 1e-05 s⁻¹ | < 1e-05 s⁻¹ | 3.81e-05 ± 1.3e-05 s⁻¹ | – | – | – |
| G38A U55C | < 1e-05 s⁻¹ | – | – | – | – | 37.7 ± 15 µM | – |
| G29C U47G | 0.000341 ± 9.9e-05 s⁻¹ | – | – | 0.000269 ± 4.6e-05 s⁻¹ | 7.76e-05 ± 1.8e-05 s⁻¹ | – | 0.000393 ± 8.4e-05 s⁻¹ |

| Variant | kcat [1] | self-cleavage kobs at 40 uM GlcN6P [2] | self-cleavage kobs at 160 uM GlcN6P [3] | self-cleavage kobs at 10000 uM GlcN6P [4] | self-cleavage kobs at 640 uM GlcN6P [5] | KM [6] | self-cleavage kobs at 2500 uM GlcN6P [7] |
| --- | --- | --- | --- | --- | --- | --- | --- |
| A12G U54G | 0.000855 ± 0.00011 s⁻¹ | – | 6.55e-05 ± 1.5e-05 s⁻¹ | 0.00064 ± 0.00017 s⁻¹ | 0.000179 ± 2.1e-05 s⁻¹ | 2260 ± 460 µM | 0.000475 ± 5.8e-05 s⁻¹ |
| C68A C71U | 1.62e-05 ± 4.6e-06 s⁻¹ | – | – | – | – | – | 2.17e-05 ± 9.8e-06 s⁻¹ |
| A12C A15U C16U C70U | 0.000185 ± 1.8e-05 s⁻¹ | – | 5.1e-05 ± 1.8e-05 s⁻¹ | 0.000188 ± 4.7e-05 s⁻¹ | 9.57e-05 ± 2.2e-05 s⁻¹ | 514 ± 130 µM | 0.000148 ± 5e-05 s⁻¹ |
| A48G C70G | 6.2e-05 ± 1.1e-05 s⁻¹ | – | – | 5.25e-05 ± 9.4e-06 s⁻¹ | 8.57e-05 ± 1.8e-05 s⁻¹ | – | 7.26e-05 ± 1.6e-05 s⁻¹ |
| C67U C70U C71U | 1.14e-05 ± 1.2e-06 s⁻¹ | – | – | – | – | 339 ± 160 µM | – |
| A6C A12C | 4.52e-05 ± 3.2e-06 s⁻¹ | – | – | 4.11e-05 ± 6.6e-06 s⁻¹ | – | 1190 ± 370 µM | 2.86e-05 ± 7.1e-06 s⁻¹ |
| C10A A14U G59U C71G | 1.42e-05 ± 3.8e-06 s⁻¹ | – | – | – | – | – | – |
| G29U C50U | 1.34e-05 ± 9.1e-07 s⁻¹ | – | < 1e-05 s⁻¹ | – | – | 3520 ± 700 µM | – |
| G43U A64G | 0.000133 ± 1.2e-05 s⁻¹ | – | – | 8.1e-05 ± 8.2e-06 s⁻¹ | – | 6370 ± 1300 µM | 3.85e-05 ± 8.6e-06 s⁻¹ |
| A12U C61G | < 1e-05 s⁻¹ | < 1e-05 s⁻¹ | – | – | – | – | – |
| G37C U45A | 0.00017 ± 2.9e-05 s⁻¹ | – | – | 0.000109 ± 1.6e-05 s⁻¹ | 2.56e-05 ± 1.3e-05 s⁻¹ | 5840 ± 1900 µM | 4.81e-05 ± 9.9e-06 s⁻¹ |
| A15C G44U | 4.07e-05 ± 6.1e-06 s⁻¹ | < 1e-05 s⁻¹ | < 1e-05 s⁻¹ | – | – | – | – |
| U47C A64G | 0.00525 ± 0.0013 s⁻¹ | 0.000131 ± 1.7e-05 s⁻¹ | 0.000324 ± 9e-05 s⁻¹ | 0.00499 ± 0.00066 s⁻¹ | 0.00115 ± 0.00027 s⁻¹ | 1890 ± 650 µM | 0.0019 ± 0.00068 s⁻¹ |
| G29U U56G | 0.00364 ± 0.0012 s⁻¹ | 6.41e-05 ± 1.1e-05 s⁻¹ | 0.000127 ± 1.6e-05 s⁻¹ | 0.00283 ± 0.00035 s⁻¹ | 0.000648 ± 9.8e-05 s⁻¹ | 3840 ± 1700 µM | 0.00118 ± 0.0002 s⁻¹ |
| G29U U46A | 0.000356 ± 1.1e-05 s⁻¹ | – | – | 0.000282 ± 3.6e-05 s⁻¹ | 7.15e-05 ± 1.2e-05 s⁻¹ | 2530 ± 150 µM | 0.000184 ± 3.7e-05 s⁻¹ |
| A12U G40U | 0.0088 ± 0.0017 s⁻¹ | 0.000308 ± 2.8e-05 s⁻¹ | 0.000749 ± 8.6e-05 s⁻¹ | 0.00785 ± 0.00081 s⁻¹ | 0.00235 ± 0.00038 s⁻¹ | 1410 ± 390 µM | 0.00609 ± 0.00085 s⁻¹ |
| U47G C70A | 0.000101 ± 9.5e-06 s⁻¹ | 3.74e-05 ± 1.6e-05 s⁻¹ | 0.000107 ± 1.5e-05 s⁻¹ | 8.94e-05 ± 8.5e-06 s⁻¹ | 9.99e-05 ± 1.3e-05 s⁻¹ | – | 0.000111 ± 1.3e-05 s⁻¹ |
| C10A U31G | < 1e-05 s⁻¹ | – | – | – | < 1e-05 s⁻¹ | – | < 1e-05 s⁻¹ |
